Results on twelve molecules are retold here after patent publication US20210246166A1 (Bayer, published 2021).

Bridge positions count the residues as written; N and C are the ends. Square brackets hold non-standard residues; d marks the D form. Ends that are not written are not given here. Oic = O=C(O)[C@@H]1C[C@@H]2CCCC[C@@H]2N1; NMeI = CC[C@H](C)[C@H](NC)C(=O)O; tBuAla = CC(C)(C)C[C@H](N)C(=O)O; 3Pal = N[C@@H](Cc1cccnc1)C(=O)O; PEG5 = NCCOCCOCCOCCOCCOCCC(=O)O; 2Thi = N[C@@H](Cc1cccs1)C(=O)O; Pen = CC(C)(S)[C@H](N)C(=O)O; NMeC = CN[C@@H](CS)C(=O)O; Orn = NCCC[C@H](N)C(=O)O; Sar = CNCC(=O)O

The chains are these.
T1: recombinant human MASP1 active protease (amino acids 297-699, C-terminal His Tag) (human, UniProt P48740 297-699)
T1 sequence: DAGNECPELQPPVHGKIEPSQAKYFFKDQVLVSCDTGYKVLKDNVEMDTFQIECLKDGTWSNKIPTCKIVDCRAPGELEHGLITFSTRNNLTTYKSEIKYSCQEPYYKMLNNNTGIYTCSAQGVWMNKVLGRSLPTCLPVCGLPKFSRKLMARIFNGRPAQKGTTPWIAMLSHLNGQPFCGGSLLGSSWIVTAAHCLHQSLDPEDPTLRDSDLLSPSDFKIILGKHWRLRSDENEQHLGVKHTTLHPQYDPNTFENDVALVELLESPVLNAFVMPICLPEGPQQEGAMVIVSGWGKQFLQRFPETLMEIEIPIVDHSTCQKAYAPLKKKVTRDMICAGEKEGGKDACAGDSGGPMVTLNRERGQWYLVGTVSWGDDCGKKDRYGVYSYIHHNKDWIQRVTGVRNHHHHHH

T2: recombinant rat MASP1 active protease (amino acids 302-704, C-terminal His Tag) (rat, UniProt Q8CHN8 302-704)
T2 sequence: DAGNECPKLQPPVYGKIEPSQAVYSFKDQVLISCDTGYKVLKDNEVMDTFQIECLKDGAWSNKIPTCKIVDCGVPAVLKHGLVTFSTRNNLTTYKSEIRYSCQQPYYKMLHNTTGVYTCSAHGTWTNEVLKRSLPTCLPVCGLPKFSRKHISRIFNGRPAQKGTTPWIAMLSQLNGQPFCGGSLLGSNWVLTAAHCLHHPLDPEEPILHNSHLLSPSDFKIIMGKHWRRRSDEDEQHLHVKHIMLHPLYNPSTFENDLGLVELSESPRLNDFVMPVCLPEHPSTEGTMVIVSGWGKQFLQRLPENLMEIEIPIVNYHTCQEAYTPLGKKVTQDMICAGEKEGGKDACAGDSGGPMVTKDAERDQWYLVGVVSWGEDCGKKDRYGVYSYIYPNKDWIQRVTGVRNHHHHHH

B1: ((N-Me)G)-IC+SRSLP-(Oic)-I-(Pen)+IP-(PEG4(19 atoms))-NH2 (peptide)
peptide: [Sar]ICSRSLP[Oic]I[Pen]IP[PEG5]-NH2
modifications: disulfide 3-11; N-terminus assumed
SMILES: CC[C@H](C)[C@H](NC(=O)CNC)C(=O)N[C@H]1CSSC(C)(C)[C@@H](C(=O)N[C@H](C(=O)N2CCC[C@H]2C(=O)NCCOCCOCCOCCOCCOCCC(N)=O)[C@@H](C)CC)NC(=O)[C@H]([C@@H](C)CC)NC(=O)[C@@H]2C[C@@H]3CCCC[C@@H]3N2C(=O)[C@@H]2CCCN2C(=O)[C@H](CC(C)C)NC(=O)[C@H](CO)NC(=O)[C@H](CCCNC(=N)N)NC(=O)[C@H](CO)NC1=O
B2: (Orn)-IC+SRS-((tBu)A)-PPI-(Pen)+IPD-NH2 (peptide)
peptide: [Orn]ICSRS[tBuAla]PPI[Pen]IPD-NH2
modifications: disulfide 3-11; N-terminus assumed
SMILES: CC[C@H](C)[C@H](NC(=O)[C@@H](N)CCCN)C(=O)N[C@H]1CSSC(C)(C)[C@@H](C(=O)N[C@H](C(=O)N2CCC[C@H]2C(=O)N[C@@H](CC(=O)O)C(N)=O)[C@@H](C)CC)NC(=O)[C@H]([C@@H](C)CC)NC(=O)[C@@H]2CCCN2C(=O)[C@@H]2CCCN2C(=O)[C@H](CC(C)(C)C)NC(=O)[C@H](CO)NC(=O)[C@H](CCCNC(=N)N)NC(=O)[C@H](CO)NC1=O
B3: (beta-P)-IC+SRS-((tBu)A)-PPI-(Pen)+IP-NH2 (peptide)
peptide: PICSRS[tBuAla]PPI[Pen]IP-NH2
modifications: disulfide 3-11; N-terminus assumed
SMILES: CC[C@H](C)[C@H](NC(=O)[C@@H]1CCCN1)C(=O)N[C@H]1CSSC(C)(C)[C@@H](C(=O)N[C@H](C(=O)N2CCC[C@H]2C(N)=O)[C@@H](C)CC)NC(=O)[C@H]([C@@H](C)CC)NC(=O)[C@@H]2CCCN2C(=O)[C@@H]2CCCN2C(=O)[C@H](CC(C)(C)C)NC(=O)[C@H](CO)NC(=O)[C@H](CCCNC(=N)N)NC(=O)[C@H](CO)NC1=O
B4: (3-Pal)-IC+SRS-((tBu)A)-PPI-(Pen)+IPD-NH2 (peptide)
peptide: [3Pal]ICSRS[tBuAla]PPI[Pen]IPD-NH2
modifications: disulfide 3-11; N-terminus assumed
SMILES: CC[C@H](C)[C@H](NC(=O)[C@@H](N)Cc1cccnc1)C(=O)N[C@H]1CSSC(C)(C)[C@@H](C(=O)N[C@H](C(=O)N2CCC[C@H]2C(=O)N[C@@H](CC(=O)O)C(N)=O)[C@@H](C)CC)NC(=O)[C@H]([C@@H](C)CC)NC(=O)[C@@H]2CCCN2C(=O)[C@@H]2CCCN2C(=O)[C@H](CC(C)(C)C)NC(=O)[C@H](CO)NC(=O)[C@H](CCCNC(=N)N)NC(=O)[C@H](CO)NC1=O
B5: aIC+SRS-((tBu)A)-PPI-(Pen)+IPD-NH2 (peptide)
peptide: [dA]ICSRS[tBuAla]PPI[Pen]IPD-NH2
modifications: disulfide 3-11; N-terminus assumed
SMILES: CC[C@H](C)[C@H](NC(=O)[C@@H](C)N)C(=O)N[C@H]1CSSC(C)(C)[C@@H](C(=O)N[C@H](C(=O)N2CCC[C@H]2C(=O)N[C@@H](CC(=O)O)C(N)=O)[C@@H](C)CC)NC(=O)[C@H]([C@@H](C)CC)NC(=O)[C@@H]2CCCN2C(=O)[C@@H]2CCCN2C(=O)[C@H](CC(C)(C)C)NC(=O)[C@H](CO)NC(=O)[C@H](CCCNC(=N)N)NC(=O)[C@H](CO)NC1=O
B6: (beta-2-thienylalanine)-IC+SRS-((tBu)A)-PPI-(Pen)+IPD-NH2 (peptide)
peptide: [2Thi]ICSRS[tBuAla]PPI[Pen]IPD-NH2
modifications: disulfide 3-11; N-terminus assumed
SMILES: CC[C@H](C)[C@H](NC(=O)[C@@H](N)Cc1cccs1)C(=O)N[C@H]1CSSC(C)(C)[C@@H](C(=O)N[C@H](C(=O)N2CCC[C@H]2C(=O)N[C@@H](CC(=O)O)C(N)=O)[C@@H](C)CC)NC(=O)[C@H]([C@@H](C)CC)NC(=O)[C@@H]2CCCN2C(=O)[C@@H]2CCCN2C(=O)[C@H](CC(C)(C)C)NC(=O)[C@H](CO)NC(=O)[C@H](CCCNC(=N)N)NC(=O)[C@H](CO)NC1=O
B7: ((N-Me)G)-IC+SRSLP-(Oic)-I-(Pen)+IPD-OH (peptide)
peptide: [Sar]ICSRSLP[Oic]I[Pen]IPD-OH
modifications: disulfide 3-11; N-terminus assumed
SMILES: CC[C@H](C)[C@H](NC(=O)CNC)C(=O)N[C@H]1CSSC(C)(C)[C@@H](C(=O)N[C@H](C(=O)N2CCC[C@H]2C(=O)N[C@@H](CC(=O)O)C(=O)O)[C@@H](C)CC)NC(=O)[C@H]([C@@H](C)CC)NC(=O)[C@@H]2C[C@@H]3CCCC[C@@H]3N2C(=O)[C@@H]2CCCN2C(=O)[C@H](CC(C)C)NC(=O)[C@H](CO)NC(=O)[C@H](CCCNC(=N)N)NC(=O)[C@H](CO)NC1=O
B8: Ac-G-((N-Me)I)-C+SRSLPPIC+IPD-OH (peptide)
peptide: Ac-G[NMeI]CSRSLPPICIPD-OH
modifications: disulfide 3-11
SMILES: CC[C@H](C)[C@@H]1NC(=O)[C@@H]2CCCN2C(=O)[C@@H]2CCCN2C(=O)[C@H](CC(C)C)NC(=O)[C@H](CO)NC(=O)[C@H](CCCNC(=N)N)NC(=O)[C@H](CO)NC(=O)[C@@H](NC(=O)[C@H]([C@@H](C)CC)N(C)C(=O)CNC(C)=O)CSSC[C@@H](C(=O)N[C@H](C(=O)N2CCC[C@H]2C(=O)N[C@@H](CC(=O)O)C(=O)O)[C@@H](C)CC)NC1=O
B9: AIC+SRS-((tBu)A)-P-(Oic)-IC+I-NH2 (peptide)
peptide: AICSRS[tBuAla]P[Oic]ICI-NH2
modifications: disulfide 3-11; N-terminus assumed
SMILES: CC[C@H](C)[C@H](NC(=O)[C@@H]1CSSC[C@H](NC(=O)[C@@H](NC(=O)[C@H](C)N)[C@@H](C)CC)C(=O)N[C@@H](CO)C(=O)N[C@@H](CCCNC(=N)N)C(=O)N[C@@H](CO)C(=O)N[C@@H](CC(C)(C)C)C(=O)N2CCC[C@H]2C(=O)N2[C@@H](C[C@@H]3CCCC[C@@H]32)C(=O)N[C@@H]([C@@H](C)CC)C(=O)N1)C(N)=O
B10: Example 479: (Orn)-IC+SRS-((tBu)A)-PPI-((N-Me)C)+IPD-OH (peptide)
peptide: [Orn]ICSRS[tBuAla]PPI[NMeC]IPD-OH
modifications: disulfide 3-11; N-terminus assumed
SMILES: CC[C@H](C)[C@H](NC(=O)[C@@H](N)CCCN)C(=O)N[C@H]1CSSC[C@@H](C(=O)N[C@H](C(=O)N2CCC[C@H]2C(=O)N[C@@H](CC(=O)O)C(=O)O)[C@@H](C)CC)N(C)C(=O)[C@H]([C@@H](C)CC)NC(=O)[C@@H]2CCCN2C(=O)[C@@H]2CCCN2C(=O)[C@H](CC(C)(C)C)NC(=O)[C@H](CO)NC(=O)[C@H](CCCNC(=N)N)NC(=O)[C@H](CO)NC1=O

One test concerns the target T1, recombinant human MASP1 active protease …. The test can be described thus: cell-based or functional assay.
With B1, the “human MASP1 IC50” value is 2.6 nM.

Take B2: the “human MASP1 IC50” value was determined as 2 nM.

On to B3, for which the “human MASP1 IC50” value was found to be 1.1 nM.

For AICSRSLP[Oic]I[Pen]IPD-NH2 (disulfide 3-11; also: TFA salt) [AIC+SRSLP-(Oic)-I-(Pen)+IPD-NH2], the “human MASP1 IC50” value was 2.23 nM.

With B4, the “human MASP1 IC50” value was found to be 2.6 nM.

As to B5, the “human MASP1 IC50” value was determined as 2 nM.

As for B6, the “human MASP1 IC50” value is 2.6 nM.

For the molecule B7, the “human MASP1 IC50” value amounted to 2.5 nM.

Take B8: the “human MASP1 IC50” value turned out to be 2.09 nM.

With AICSRSLP[Oic]I[Pen]IPD-OH (disulfide 3-11) [AIC+SRSLP-(Oic)-I-(Pen)+IPD-OH (salt free form)], the “human MASP1 IC50” value was 0.96 nM.

As to B9, the “human MASP1 IC50” value is 2.7 nM.

A further test has as its target T2, recombinant rat MASP1 active protease …. The test can be described thus: cell-based or functional assay.
For B10, the “rat MASP1 IC50” value is 84 nM.
